Test results taken from PMC2189183.
Read-outs that look alike come from different tables or passages of the source.

What was measured:
Test in all cases: conjugate formation
[1] = target: HLA class I antigens of JY cells (human (endogenous in JY)) (UniProt P04439)
[2] = target: HLA class I antigens of JY cells (human (endogenous in JY)) (UniProt P04439); remark: listed apart in the source
[3] = target: HLA class I antigens of JY cells (human (endogenous in JY)) (UniProt P04439); remark: listed apart in the source

UniProt P04439, sequence (P04439 whole entry, looked up): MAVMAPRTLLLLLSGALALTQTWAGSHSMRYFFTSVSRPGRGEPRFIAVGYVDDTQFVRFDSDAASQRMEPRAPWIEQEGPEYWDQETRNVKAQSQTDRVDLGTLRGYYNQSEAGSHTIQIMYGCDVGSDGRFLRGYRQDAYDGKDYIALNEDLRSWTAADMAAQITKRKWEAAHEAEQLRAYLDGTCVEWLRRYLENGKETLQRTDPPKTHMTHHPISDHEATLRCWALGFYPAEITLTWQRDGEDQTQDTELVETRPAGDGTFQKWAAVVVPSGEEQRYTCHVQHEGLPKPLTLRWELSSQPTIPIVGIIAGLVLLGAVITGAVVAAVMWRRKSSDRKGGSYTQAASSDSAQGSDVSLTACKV

- percent conjugates [1]: 22%
- percent conjugates [2]: 42%
- percent conjugates [3]: 29%
Substance: CD8 (human CD8 expressed in the murine T cell hybridoma 16.T8-15) (from UniProt P01732 22-235) (receptor)
